84 variants from the RNAGym collection of RNA variant scans (doi:10.1073/pnas.2313332121) can be followed below.

Fewer inactive variants are shown than the library holds.

B1: TPR 5TU (parent)
chain: GGAUCUUCUCGAUCUAACAAAAAAGACAAAUCUGCCACAAAGCUUGAGAGCAUCUUCGGAUGCAGAGGCGGCAGCCUUCGGUGGCGCGAUAGCGCCAACGUUCUCAACUAUGACACGCAAAACGCGUGCUCCGUUGAAUGGAGUUUAUCAUG

In the data set the parent is B1. Briefly: polymerase ribozyme fitness, log enrichment relative to wild type (log ratio); higher = more active; in vitro selection for triplet polymerase activity. A digest of the protocol:
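Mutant libraries were PCR-built and transcribed for each subunit of a heterodimeric triplet polymerase ribozyme and selected for one round in triplicate at −7 °C, frozen, before gel excision of extended constructs and streptavidin-bead capture. Input and output libraries were Illumina-sequenced, keeping genotypes with ≥10 input reads and ≥1 read per output. Fitness is a logarithmic ratio of genotype to wild-type enrichment, in base 2, using inverse-variance-weighted replicate averages.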
Consider C18U C38U A39C G92U C103U, for which the “polymerase ribozyme fitness (log ratio)” value was at most -4.2. Take A19C U61A C103A: the “polymerase ribozyme fitness (log ratio)” value was at most -4.2. Consider A19U C123U, for which the “polymerase ribozyme fitness (log ratio)” value is -0.609. A19G G83C: the “polymerase ribozyme fitness (log ratio)” value is -1.11. As for A19U C35U, the “polymerase ribozyme fitness (log ratio)” value was -0.444.

Take A19U A20G A66G G80A C87A A107G A110C: the “polymerase ribozyme fitness (log ratio)” value was at most -4.2. On to A19U A89U G136U, for which the “polymerase ribozyme fitness (log ratio)” value was -3.55. Regarding A19G A98U A115U A120U, the “polymerase ribozyme fitness (log ratio)” value was -2.62.

Take A19U A23C C27A C85A: the “polymerase ribozyme fitness (log ratio)” value is at most -4.2.

For the variant A19C C43U U61G A64C U77G C85U A110U C116G, the “polymerase ribozyme fitness (log ratio)” value was at most -4.2. As for A19U G58A C105G, the “polymerase ribozyme fitness (log ratio)” value was -2.43.

Consider A19C A22U C35A A106G, for which the “polymerase ribozyme fitness (log ratio)” value is -3.28.

As for C18U U55A C57G A66U U82G G94C A113U, the “polymerase ribozyme fitness (log ratio)” value was at most -4.2. On to A19U C75U G81C C99G A119G G140U, for which the “polymerase ribozyme fitness (log ratio)” value is at most -4.2. As for A19C A107G, the “polymerase ribozyme fitness (log ratio)” value is -3.75. For A19C C57A A119G G128A the value was -4.12; for C18U C36A, -4.01; for A19G A30G G42C G50A C85U U109A A120G, at most -4.2. On to A19C C51A C75A C93A G117C, for which the “polymerase ribozyme fitness (log ratio)” value is at most -4.2. As to C18U C57G U61A C87U A89U C116U C118G A122G U139A, the “polymerase ribozyme fitness (log ratio)” value is at most -4.2.

For the variant A19G C57U G67U G94A C105A, the “polymerase ribozyme fitness (log ratio)” value was at most -4.2. Take A19U A47C U55G C87U G92U U101C: the “polymerase ribozyme fitness (log ratio)” value is -2.81. On to A19C C93G, for which the “polymerase ribozyme fitness (log ratio)” value is -2.84. For the variant A19C C93U, the “polymerase ribozyme fitness (log ratio)” value worked out at 0.111. With A19U C69G C72U G84A, the “polymerase ribozyme fitness (log ratio)” value was -3.03. For C18U G34U G70A C85U C87U A91C G117A the value was at most -4.2. Then C18U A60G U82A G141C, with -0.334. Then A19C C72A A107U G143A, with at most -4.2; and A19C C57A C131A, with -2.25; and A19C A20U U61C C76A U82C A91U U130G U146C, with at most -4.2. As to C18U C93U, the “polymerase ribozyme fitness (log ratio)” value was -1.73. On to C18U C93G, for which the “polymerase ribozyme fitness (log ratio)” value was -3.19.

A19C G83U C87U: the “polymerase ribozyme fitness (log ratio)” value is -0.445. Then A19G U33C A41C A91U C93A A97C, with at most -4.2; and A19C U56A G94A C99U U135A U148A U151G, with at most -4.2. Take A19C A150U: the “polymerase ribozyme fitness (log ratio)” value was 2.88. For the variant A19C A150G, the “polymerase ribozyme fitness (log ratio)” value is -0.495.

A19C C27A A47C G58A G59A A91G C123A: the “polymerase ribozyme fitness (log ratio)” value is at most -4.2. As to C18U C132U U135A, the “polymerase ribozyme fitness (log ratio)” value was -2.33. Consider A19C A21U A40C A60C C96G A110G G136U, for which the “polymerase ribozyme fitness (log ratio)” value is at most -4.2. For A19U G46U A52U the value was at most -4.2.

On to A19G G59U G84U C105G, for which the “polymerase ribozyme fitness (log ratio)” value was -3.78. Consider A19U G50U C51A C96U A119G, for which the “polymerase ribozyme fitness (log ratio)” value was -3.91. With A19U C54U U134C A150C, the “polymerase ribozyme fitness (log ratio)” value was -2.5. With A19C A41C U148C, the “polymerase ribozyme fitness (log ratio)” value was -1.99.

For A19C A24G C36U C57A U111G A121G, the “polymerase ribozyme fitness (log ratio)” value is at most -4.2.

For C18U G58C G86A U104C, the “polymerase ribozyme fitness (log ratio)” value was -1.79.

C18U A41G C51U A115C G140U: the “polymerase ribozyme fitness (log ratio)” value is -3.82. Then A19U A40C A91U C95G, with at most -4.2; and A19C G34A C57U G86C C96U A98U, with -3.16. For A19C C54U the value was -0.474. For C18U C131A the value was -2.6; for A19G C35U U53G C54A G71A U145C, -2.47; for C18U C96G U127C G143A, -4.17. On to A19G C54G C96G C149U, for which the “polymerase ribozyme fitness (log ratio)” value was -3.72. As to A19U A47C C93U, the “polymerase ribozyme fitness (log ratio)” value was -1.1.

As for C18U C85U, the “polymerase ribozyme fitness (log ratio)” value is -0.241. Take C18U C85G: the “polymerase ribozyme fitness (log ratio)” value is -2.3.

Take A19G C72G A89G: the “polymerase ribozyme fitness (log ratio)” value was at most -4.2.

As for A19G A20G A60G C76A A89U C93A, the “polymerase ribozyme fitness (log ratio)” value was at most -4.2. As for A19G A23G G67C C87U, the “polymerase ribozyme fitness (log ratio)” value is at most -4.2. C18U C57U G86A: the “polymerase ribozyme fitness (log ratio)” value was -1.67.

Turning to A19C U55A C123G C125A U148G, the “polymerase ribozyme fitness (log ratio)” value is at most -4.2.

Consider A19G A39U U55G A121C, for which the “polymerase ribozyme fitness (log ratio)” value was -2.95. With A19G A73G C85A, the “polymerase ribozyme fitness (log ratio)” value is -1.82.

Regarding A19G A26C U55G G83U U151C, the “polymerase ribozyme fitness (log ratio)” value was at most -4.2. Regarding C18U C93U G133U, the “polymerase ribozyme fitness (log ratio)” value was at most -4.2.

As for A19G U33C A49C C54U G81A C87U, the “polymerase ribozyme fitness (log ratio)” value is at most -4.2. As to A19G G50A, the “polymerase ribozyme fitness (log ratio)” value was -2.14. Then A19G G83A A91C G94C C96G U134G, with at most -4.2. Then C18U U55A G81C C93U C105U C118G, with -1.85. Turning to C18U U31C U56G A138U G140A, the “polymerase ribozyme fitness (log ratio)” value was -4. With A19U C38A C54U C85A C108A, the “polymerase ribozyme fitness (log ratio)” value is at most -4.2.

A19G C93A: the “polymerase ribozyme fitness (log ratio)” value was -3.43. In the case of A19G A26C U144G, the “polymerase ribozyme fitness (log ratio)” value is -2.17. With A19C C129G U148G, the “polymerase ribozyme fitness (log ratio)” value was at most -4.2. As to A19C A28C A73G C87U, the “polymerase ribozyme fitness (log ratio)” value is at most -4.2. A19U A21U G86A C103U: the “polymerase ribozyme fitness (log ratio)” value was -2.31. Then A19C G86C C99U, with -2.28; and A19G G50A G67A A91U C93A, with at most -4.2; and A19G A22G U31G A41U U44A A60C G81A G83C G84A U146A, with at most -4.2. Take A19G C32A G46C C54U G59C A106U G128C: the “polymerase ribozyme fitness (log ratio)” value was at most -4.2. Then A19U G50U G58C C75U C118G A120G G141A U146A, with at most -4.2; and A19G U53G A120U, with -2.57.
